Holding throughout (assay): Kd (EC50 corrected by depletion factor)
For one series, the target named is T1, U2AF1 (UniProt Q01081).
T1 sequence: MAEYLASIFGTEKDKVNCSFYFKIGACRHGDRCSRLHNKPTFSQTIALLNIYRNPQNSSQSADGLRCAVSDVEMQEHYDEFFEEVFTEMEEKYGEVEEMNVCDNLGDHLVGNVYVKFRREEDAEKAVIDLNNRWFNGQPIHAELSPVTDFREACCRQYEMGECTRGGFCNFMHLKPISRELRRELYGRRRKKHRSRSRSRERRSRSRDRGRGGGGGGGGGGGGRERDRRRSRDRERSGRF
Put shortly: (§1)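 Free RNA oligos (0 nM to 30 μM) were pre-incubated with HEK293-FT lysate (2.5 mg protein/well) for 1 h at 4°C, followed by 30 min at 4°C with the same 5′-amino-C6 oligos coupled to NHS-Sepharose beads. Bound proteins were quantified by label-free LC-MS/MS and normalised to the control. EC50 was derived from a four-parameter log-logistic fit, and Kd was obtained by multiplying EC50 by a protein-dependent depletion factor.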

The target of another series is PCBP1 (UniProt Q15365). Put shortly: as §1
In a further series the target is T2, DDX21 (UniProt Q9NR30).
T2 sequence: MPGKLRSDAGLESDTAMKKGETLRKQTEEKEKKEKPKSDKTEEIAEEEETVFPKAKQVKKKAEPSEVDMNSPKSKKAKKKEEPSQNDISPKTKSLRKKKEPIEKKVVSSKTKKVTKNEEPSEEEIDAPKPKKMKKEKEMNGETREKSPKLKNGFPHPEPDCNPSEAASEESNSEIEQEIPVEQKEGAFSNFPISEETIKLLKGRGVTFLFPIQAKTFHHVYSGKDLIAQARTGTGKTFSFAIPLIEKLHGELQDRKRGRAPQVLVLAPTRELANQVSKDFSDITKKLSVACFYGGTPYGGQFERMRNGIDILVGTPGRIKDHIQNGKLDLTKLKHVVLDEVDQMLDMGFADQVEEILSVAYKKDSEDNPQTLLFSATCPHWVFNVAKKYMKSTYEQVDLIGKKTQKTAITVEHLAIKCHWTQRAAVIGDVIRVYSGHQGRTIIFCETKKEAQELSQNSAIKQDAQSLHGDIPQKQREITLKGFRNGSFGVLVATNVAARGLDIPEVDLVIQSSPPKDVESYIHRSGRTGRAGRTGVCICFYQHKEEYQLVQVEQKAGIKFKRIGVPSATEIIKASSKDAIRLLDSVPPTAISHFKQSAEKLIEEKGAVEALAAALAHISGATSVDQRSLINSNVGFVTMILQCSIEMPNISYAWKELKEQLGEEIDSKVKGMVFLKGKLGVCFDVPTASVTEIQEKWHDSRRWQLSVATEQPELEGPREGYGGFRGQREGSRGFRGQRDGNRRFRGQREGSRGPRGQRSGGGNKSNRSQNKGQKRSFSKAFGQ
Put shortly: as §1

The target of another series is MRPL11 (UniProt Q9Y3B7). Put shortly: as §1
The next series concerns the target T3, RBM38 (UniProt Q9H0Z9).
T3 sequence: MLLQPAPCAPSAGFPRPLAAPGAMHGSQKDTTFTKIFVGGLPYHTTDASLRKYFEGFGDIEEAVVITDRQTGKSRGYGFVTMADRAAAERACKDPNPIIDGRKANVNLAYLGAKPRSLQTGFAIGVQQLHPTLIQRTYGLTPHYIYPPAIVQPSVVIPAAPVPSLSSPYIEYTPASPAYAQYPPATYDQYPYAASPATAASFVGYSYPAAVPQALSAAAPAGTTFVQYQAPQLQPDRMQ
Put shortly:
as §1

Another series concerns the target T4, MEX3C (UniProt Q5U5Q3).
T4 sequence: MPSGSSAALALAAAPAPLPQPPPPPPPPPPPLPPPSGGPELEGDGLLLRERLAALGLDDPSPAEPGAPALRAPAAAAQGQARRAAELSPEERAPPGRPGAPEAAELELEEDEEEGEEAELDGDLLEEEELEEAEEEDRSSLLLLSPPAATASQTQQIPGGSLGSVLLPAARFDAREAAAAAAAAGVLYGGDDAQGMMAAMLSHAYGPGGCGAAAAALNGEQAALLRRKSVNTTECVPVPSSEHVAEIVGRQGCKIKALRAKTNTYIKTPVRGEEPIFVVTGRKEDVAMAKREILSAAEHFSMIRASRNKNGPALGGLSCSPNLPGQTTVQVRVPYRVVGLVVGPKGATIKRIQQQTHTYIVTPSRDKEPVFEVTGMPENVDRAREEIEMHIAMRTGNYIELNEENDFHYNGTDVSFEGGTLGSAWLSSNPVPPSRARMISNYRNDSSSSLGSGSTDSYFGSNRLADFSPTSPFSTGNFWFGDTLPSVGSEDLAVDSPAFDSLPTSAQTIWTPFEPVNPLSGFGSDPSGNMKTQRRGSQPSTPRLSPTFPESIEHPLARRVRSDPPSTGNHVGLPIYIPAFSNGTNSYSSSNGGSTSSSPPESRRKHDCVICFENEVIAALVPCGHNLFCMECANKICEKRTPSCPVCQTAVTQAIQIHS
Put shortly:
as §1

In a further series the target is MRPS27 (UniProt Q92552). The gist of the method:
as §1

In another series the target is MRPS28 (UniProt Q9Y2Q9). Put shortly: as §1

pKd: −log10 of the molar value.

Chain of PCBP1 (Q15365 whole entry): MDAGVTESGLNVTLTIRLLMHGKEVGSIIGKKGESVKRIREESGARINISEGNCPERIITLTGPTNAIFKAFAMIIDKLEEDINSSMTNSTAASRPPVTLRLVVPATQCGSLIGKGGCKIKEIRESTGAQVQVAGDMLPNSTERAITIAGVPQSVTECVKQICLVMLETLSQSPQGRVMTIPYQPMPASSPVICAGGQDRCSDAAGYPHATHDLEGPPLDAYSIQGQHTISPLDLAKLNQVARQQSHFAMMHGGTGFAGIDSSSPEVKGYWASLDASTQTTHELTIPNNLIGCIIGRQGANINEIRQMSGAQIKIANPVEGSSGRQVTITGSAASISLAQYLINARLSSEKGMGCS

As usually defined, the pKd is the Kd on a negative log10 scale, so that one unit is a factor of ten. A higher pKd goes with a low Kd. AAUAAA: the pKd with U2AF1 is 6.69.
For the sequence CUGUCCU, the figures for the pKd with PCBP1, with DDX21 and with MRPL11 were 5.81, 7.35 and 7.27, respectively.
With UAUUUAU, the pKd was 5.90 in the series with RBM38, 6.47 in the series with MEX3C, 7.30 with MRPS27 and 7.80 with MRPS28.

These data come from the supplement of paper PMC6379048.
